The source of these data is US20250327097A1, “ORGANISMS PRODUCING LESS CROTONIC ACID” (Global Bioenergies, priority 2021, published 2025).

Sequences and labels used below:
B1: E126K-H141Q-I283T-N285P-N287T-Q290E-S322T-N388M-K394R-C430A-L432F-L434W-S436N-dG462 (protein)
chain: MFLKSLREQINLLKRQGDLRIINRPVDSYLEAAAIIRRSTETKAPVPLMTNIKGYPGCSIVGGLAALSSNPEYPLSRVAMSLGLSTTASAQSIVQYLIDGLKKTPYLPVEIDSNSAPCKQNILRGKDASLAHFPIPQVHQQDGNRYVNTWGVFIVESPDGQWCNWSIQRVQYLNDRQMIALVFPSQHISDIWEEWVKIGKPMPYALVQGCEPIVPYIAGLPLLERNVNEAEYIGALYGKGIEVVKCETHDLRVPASSEVVIEGYFAITREGVEGPFGEFAGYTPPETSLEPILSITAISWQDDPIWPVVAEGKPVDEYHTCTGIGDAAAIQNVLLTANLPVSFVWVPLYSACHLMIVSINRHWRQTHPDLTSEQLTKKVGDVIHQTRMSIKLPRIVVLDDDVDPADTESLLWALATRIHPERKRYFYESAIFPWLNCYSEEERHNRKGKRVIIDALLPENHGAISSFDYAYPDDIKQRVLMHWETDFSHD
B2: I35V-Q140L-I283T-N285P-N287T-Q290E-S322T-N388M-K394R-C430A-L432F-L434W-S436N-dG462 (protein)
chain: B1 chain with I35V, K126E, Q140L, Q141H
B3: I283T-P284D-i284aP-N287P-S322T-N388M-E421V-C430N-L432F-L434W-S436N-H461V-dG462-A463T (protein)
chain: MFLKSLREQINLLKRQGDLRIINRPVDSYLEAAAIIRRSTETKAPVPLMTNIKGYPGCSIVGGLAALSSNPEYPLSRVAMSLGLSTTASAQSIVQYLIDGLKKTPYLPVEIDSNSAPCKQNILRGEDASLAHFPIPQVHQHDGNRYVNTWGVFIVESPDGQWCNWSIQRVQYLNDRQMIALVFPSQHISDIWEEWVKIGKPMPYALVQGCEPIVPYIAGLPLLERNVNEAEYIGALYGKGIEVVKCETHDLRVPASSEVVIEGYFAITREGVEGPFGEFAGYTDNEPSLQPILSITAISWQDDPIWPVVAEGKPVDEYHTCTGIGDAAAIQNVLLTANLPVSFVWVPLYSACHLMIVSINRHWRQTHPDLTSEQLTKKVGDVIHQTRMSIKLPKIVVLDDDVDPADTESLLWALATRIHPVRKRYFYESNIFPWLNCYSEEERHNRKGKRVIIDALLPENVGTISSFDYAYPDDIKQRVLMHWETDFSHD
B4: I283T-N285P-N287T-Q290E-S322T-N388M-K394R-C430A-L432F-L434W-S436N-H444R-dG462 (protein)
chain: B1 chain with K126E, Q141H, H444R
B5: I283T-P284D-i284aP-N287P-S322T-N388M-E421V-R422F-C430N-L432F-L434W-S436N-H461T-dG462 (protein)
chain: B3 chain with R422F, V461T, T463A
B6: I283T-P284D-i284aP-N287P-S322T-N388M-E421V-R422F-C430N-L432F-L434W-S436N-H461T-dG462-A463T (protein)
chain: B3 chain with R422F, V461T
B7: L223Y-I283T-N285P-N287T-Q290E-S322T-N388M-K394R-C430A-L432F-L434W-S436N-dG462 (protein)
chain: B1 chain with K126E, Q141H, L223Y
B8: I283T-N285P-N287T-Q290E-S322T-N388M-K394R-C430A-L432F-L434W-S436N-H444T-dG462 (protein)
chain: B1 chain with K126E, Q141H, H444T
B9: I283T-N285P-N287T-Q290E-S322T-N388M-K394R-C430V-L432F-L434W-S436N-dG462 (protein)
chain: B1 chain with K126E, Q141H, A430V
B10: I283T-N285P-N287T-L289C-Q290E-S322T-N388M-K394R-C430A-L432F-L434W-S436N-dG462 (protein)
chain: B1 chain with K126E, Q141H, L289C
B11: I283L-N285P-N287T-Q290E-S322T-N388M-K394R-C430A-L432F-L434W-S436N-dG462 (protein)
chain: B1 chain with K126E, Q141H, T283L
B12: I283T-N285P-N287T-Q290E-S322T-N388M-K394R-C430A-L432F-L434W-S436N-dG462-A463F (protein)
chain: B1 chain with K126E, Q141H, A463F
B13: V227Y-I283T-N285P-N287T-Q290E-S322T-N388M-K394R-C430A-L432F-L434W-S436N-dG462 (protein)
chain: B1 chain with K126E, Q141H, V227Y
B14: I283T-N285P-N287T-Q290E-S322T-N388M-K394R-K423G-C430A-L432F-L434W-S436N-dG462 (protein)
chain: B1 chain with K126E, Q141H, K423G
B15: I283T-N285P-N287T-Q290E-S322T-Q365T-N388M-K394R-C430A-L432F-L434W-S436N-dG462 (protein)
chain: B1 chain with K126E, Q141H, Q365T
B16: I283T-P284D-i284aP-N287P-S322T-N388M-E421V-R422F-C430N-L432F-L434W-S436N-dG462-A463T (protein)
chain: B3 chain with R422F, V461H
B17: I283T-N285P-N287T-L289R-Q290E-S322T-N388M-K394R-C430A-L432F-L434W-S436N-dG462 (protein)
chain: B1 chain with K126E, Q141H, L289R
B18: I283T-N285P-N287T-L289W-Q290E-S322T-N388M-K394R-C430A-L432F-L434W-S436N-dG462 (protein)
chain: B1 chain with K126E, Q141H, L289W
B19: I283T-N285P-N287T-Q290E-S322T-N388M-K394R-C430A-L432F-L434W-S436N-dG462-A463V (protein)
chain: B1 chain with K126E, Q141H, A463V
B20: E224Q-I283T-N285P-N287T-Q290E-S322T-N388M-K394R-C430A-L432F-L434W-S436N-dG462 (protein)
chain: B1 chain with K126E, Q141H, E224Q
B21: N287R-N388M-K394R-C430N-L432F-L434W-S436N (protein)
chain: B3 chain with T283I, D284P, P287R, T322S, K394R, V421E, V461H, T463A
B22: I283T-N285P-N287T-Q290E-S322T-N388M-K394R-R422D-C430A-L432F-L434W-S436N-dG462 (protein)
chain: B1 chain with K126E, Q141H, R422D
B23: P184S-I283T-N285P-N287T-Q290E-S322T-N388M-K394R-C430A-L432F-L434W-S436N-dG462 (protein)
chain: B1 chain with K126E, Q141H, P184S
B24: I283T-N285P-N287T-Q290E-S322T-N388M-K394R-C430A-L432F-L434W-S436N-dG462-Y471F (protein)
chain: B1 chain with K126E, Q141H, Y471F
B25: I283T-N285P-N287T-Q290E-S322T-N388M-K394R-C430A-L432F-L434W-S436N-dG462-A470S (protein)
chain: B1 chain with K126E, Q141H, A470S
B26: E224P-I283T-N285P-N287T-Q290E-S322T-N388M-K394R-C430A-L432F-L434W-S436N-dG462 (protein)
chain: B1 chain with K126E, Q141H, E224P
B27: I283T-N285P-N287T-Q290E-S322T-N388M-K394R-C430A-L432F-L434W-S436N-H444F-dG462 (protein)
chain: B1 chain with K126E, Q141H, H444F
B28: L222V-I283T-N285P-N287T-Q290E-S322T-N388M-K394R-C430A-L432F-L434W-S436N-dG462 (protein)
chain: B1 chain with K126E, Q141H, L222V
B29: I283T-P284D-i284aP-N287P-S322T-N388M-C430N-L432F-L434W-S436N-H461A-dG462 (protein)
chain: B3 chain with V421E, V461A, T463A
B30: I283T-P284D-i284aP-N287P-S322T-N388M-C430N-L432F-L434W-S436N-H461A-dG462-A463T (protein)
chain: B3 chain with V421E, V461A
B31: N287Q-N388M-K394R-C430N-L432F-L434W-S436N (protein)
chain: B3 chain with T283I, D284P, P287Q, T322S, K394R, V421E, V461H, T463A
B32: I283T-N285P-N287T-Q290E-S322T-N388M-K394R-C430A-L432F-L434W-S436N-N460G-dG462 (protein)
chain: B1 chain with K126E, Q141H, N460G

Residue numbers refer to the chain shown, from its start. Names and notes keep the numbering of the source.

The subject of this assay is 3-methylcrotonic acid. It counts as biochemical, Yersinia frederiksenii. Set-up: key: “+” representing a low increase in activity; “++++” representing a high increase in activity.
In the case of B1, the “Activity relative to WT” value is reported as “++++”.

As to B2, the “Activity relative to WT” value was “++++”.

For the molecule B3, the “Activity relative to WT” value was “++++”.

For B4, the “Activity relative to WT” value is “++++”.

For B5, the “Activity relative to WT” value is on record as “++++”.

Turning to B6, the “Activity relative to WT” value is given as “++++”.

Regarding B7, the “Activity relative to WT” value was “++++”.

Take B8: the “Activity relative to WT” value is recorded as “++++”.

Turning to B9, the “Activity relative to WT” value is “++++”.

Turning to B10, the “Activity relative to WT” value is listed as “++++”.

As to B11, the “Activity relative to WT” value is on record as “++++”.

Consider B12, for which the “Activity relative to WT” value is “++++”.

B13: the “Activity relative to WT” value was “++++”.

As to B14, the “Activity relative to WT” value is “++++”.

Consider B15, for which the “Activity relative to WT” value is reported as “++++”.

For the molecule B16, the “Activity relative to WT” value is recorded as “++++”.

Consider B17, for which the “Activity relative to WT” value is reported as “++++”.

As for B18, the “Activity relative to WT” value is “++++”.

With B19, the “Activity relative to WT” value was “++++”.

For B20, the “Activity relative to WT” value was “++++”.

Regarding B21, the “Activity relative to WT” value is on record as “+”.

Regarding B22, the “Activity relative to WT” value is listed as “++++”.

Turning to B23, the “Activity relative to WT” value is reported as “++++”.

In the case of B24, the “Activity relative to WT” value was “++++”.

Turning to B25, the “Activity relative to WT” value is reported as “++++”.

B26: the “Activity relative to WT” value is “++++”.

As for B27, the “Activity relative to WT” value is on record as “++++”.

Turning to B28, the “Activity relative to WT” value is reported as “++++”.

For the molecule B29, the “Activity relative to WT” value was “++++”.

B30: the “Activity relative to WT” value is “++++”.

Turning to B31, the “Activity relative to WT” value was “+”.

For B32, the “Activity relative to WT” value was “++++”.
